Tests used:
[1] = target: T1, bovine serum albumin (bovine, UniProt P02769 25-607); assay: BLI; BLItz (ForteBio); biotinylated fortilin immobilised on streptavidin-coated biosensors (25 μg/mL, 600 s), buffer exchange in PBS; analyte at various concentrations for 180 s, dissociation in PBS for 300 s; three independent experiments; conditions: both partners purified
T1 construct: serum albumin, bovine; negative control of the biolayer interferometry; also called BSA; source: bought: Sigma-Aldrich

[2] = target: GST-IRE1α-C (aa 468-977) (human, UniProt O75460 468-977); assay: cell-based or functional assay
GST-IRE1α-C (aa 468-977), sequence (O75460 468-977): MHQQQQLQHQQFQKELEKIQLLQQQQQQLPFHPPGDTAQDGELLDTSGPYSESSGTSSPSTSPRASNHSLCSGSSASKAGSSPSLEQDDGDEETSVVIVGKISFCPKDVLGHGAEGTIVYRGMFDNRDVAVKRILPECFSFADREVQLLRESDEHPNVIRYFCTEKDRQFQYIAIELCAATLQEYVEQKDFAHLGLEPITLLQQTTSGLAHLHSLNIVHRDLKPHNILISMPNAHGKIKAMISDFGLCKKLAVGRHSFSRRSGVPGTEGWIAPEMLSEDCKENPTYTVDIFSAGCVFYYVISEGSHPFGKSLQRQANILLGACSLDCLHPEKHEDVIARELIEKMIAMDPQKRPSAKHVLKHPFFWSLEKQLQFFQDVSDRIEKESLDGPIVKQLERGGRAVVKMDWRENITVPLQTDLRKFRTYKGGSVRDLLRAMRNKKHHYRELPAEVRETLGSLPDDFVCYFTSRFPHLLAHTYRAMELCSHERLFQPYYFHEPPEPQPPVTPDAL

T1 sequence (P02769 25-607): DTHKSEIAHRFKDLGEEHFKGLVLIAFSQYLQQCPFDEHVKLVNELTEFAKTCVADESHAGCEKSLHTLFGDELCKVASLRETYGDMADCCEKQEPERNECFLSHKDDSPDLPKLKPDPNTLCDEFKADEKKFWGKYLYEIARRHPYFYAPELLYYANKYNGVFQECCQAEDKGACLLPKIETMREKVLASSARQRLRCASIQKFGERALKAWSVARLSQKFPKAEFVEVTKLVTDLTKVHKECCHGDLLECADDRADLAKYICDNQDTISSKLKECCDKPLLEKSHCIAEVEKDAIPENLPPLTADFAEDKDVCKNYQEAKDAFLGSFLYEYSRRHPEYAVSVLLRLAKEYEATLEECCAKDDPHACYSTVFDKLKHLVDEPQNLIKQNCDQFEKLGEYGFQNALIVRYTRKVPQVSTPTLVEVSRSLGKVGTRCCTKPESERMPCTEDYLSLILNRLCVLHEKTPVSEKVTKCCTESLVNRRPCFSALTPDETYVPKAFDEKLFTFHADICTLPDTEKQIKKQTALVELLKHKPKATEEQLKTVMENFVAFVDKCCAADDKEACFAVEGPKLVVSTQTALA

B1: recombinant human fortilin (Strep-tag II), biotinylated (natural protein, UniProt P13693 1-172, looked up)
chain: MIIYRDLISHDEMFSDIYKIREIADGLCLEVEGKMVSRTEGNIDDSLIGGNASAEGPEGEGTESTVITGVDIVMNHHLQETSFTKEAYKKYIKDYMKSIKGKLEEQRPERVKPFMTGAAEQIKHILANFKNYQFFIGENMNPDGMVALLDYREDGVTPYMIFFKDGLEMEKC
modifications: biotinylated (sites not given)
notes: fortilin (translationally controlled tumor protein), human, described as a 172-amino-acid polypeptide; cDNA encoding human fortilin cloned into pESG-IBA5; Biotinylated for BLI; also called translationally controlled tumor protein; Strep-tagged fortilin; source: 293T cells stably expressing it, purified (Strep-Tactin-Superflow resin)
Kd [1]: 1.05 mM
in vitro IRE1α kinase activity: incorporation of γ-33P from [γ-33P]ATP into myelin basic protein; IC50 of fortilin [2]: 0.77 µM
